Results from doi:10.1101/2023.01.18.524551 (bioRxiv, 2023).

Molecular target: T1, C3aR R161A (human, UniProt Q16581 1-482, R161^ECL2A)
T1 sequence: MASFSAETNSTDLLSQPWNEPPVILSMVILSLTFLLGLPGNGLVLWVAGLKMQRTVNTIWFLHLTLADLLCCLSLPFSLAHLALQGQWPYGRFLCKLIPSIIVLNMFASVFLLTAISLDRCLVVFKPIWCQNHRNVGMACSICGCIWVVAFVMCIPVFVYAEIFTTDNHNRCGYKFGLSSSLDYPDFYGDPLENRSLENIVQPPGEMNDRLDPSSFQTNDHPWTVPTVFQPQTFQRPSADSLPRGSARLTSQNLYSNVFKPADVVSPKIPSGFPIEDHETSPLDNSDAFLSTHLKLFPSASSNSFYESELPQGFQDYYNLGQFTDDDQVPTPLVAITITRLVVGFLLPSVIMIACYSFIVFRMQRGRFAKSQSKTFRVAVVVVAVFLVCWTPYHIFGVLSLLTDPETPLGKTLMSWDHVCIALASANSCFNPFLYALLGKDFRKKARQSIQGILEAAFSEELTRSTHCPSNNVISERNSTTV
Experiment: cell-based or functional assay

B1: His6-SUMOstar-C3a (recombinant human C3a, residues 1-77) (ligand)
chain: not shown
  decrease of the potency of C3a against the wild type (GloSensor cAMP assay): > 100 fold
